Measurements: IntAct's records for PubMed 15282298

B1: Meiosis-inducing protein 1 (Saccharomyces cerevisiae), P21190 (parent)
chain: MQADMHGKLHAALEDGFFLFPFEQQQQPNIYYDTTTDQEDRPCFSFGSTISPRSWHFEKSDKIASSQLQNLVHTQPIHLINPQILFNEEFLNLENIDSQPISKETKTTKDCTMATGPERGKKSSESTRSSSLSSLFSNDESASTFHSSFNNHDNFQKSNRNGDDIDISDTIKYETNTNAQKDIKIFQENFEFNEFPYTQDFYPYTTNYTYSKPTNIHESINSKNTDSYSQYQDQFPPHTDNIHSFNNRHYSNHKSTNCNYYNNTSNNNNASDNVYEADPFIDEPQVPSYYYPLEIAFDVEKSPPPSLQKLNSKELEFLKKLNSKLSRYAAAYSFSSSNDQDYYDKVRFQEISYKFSKTYS
partner: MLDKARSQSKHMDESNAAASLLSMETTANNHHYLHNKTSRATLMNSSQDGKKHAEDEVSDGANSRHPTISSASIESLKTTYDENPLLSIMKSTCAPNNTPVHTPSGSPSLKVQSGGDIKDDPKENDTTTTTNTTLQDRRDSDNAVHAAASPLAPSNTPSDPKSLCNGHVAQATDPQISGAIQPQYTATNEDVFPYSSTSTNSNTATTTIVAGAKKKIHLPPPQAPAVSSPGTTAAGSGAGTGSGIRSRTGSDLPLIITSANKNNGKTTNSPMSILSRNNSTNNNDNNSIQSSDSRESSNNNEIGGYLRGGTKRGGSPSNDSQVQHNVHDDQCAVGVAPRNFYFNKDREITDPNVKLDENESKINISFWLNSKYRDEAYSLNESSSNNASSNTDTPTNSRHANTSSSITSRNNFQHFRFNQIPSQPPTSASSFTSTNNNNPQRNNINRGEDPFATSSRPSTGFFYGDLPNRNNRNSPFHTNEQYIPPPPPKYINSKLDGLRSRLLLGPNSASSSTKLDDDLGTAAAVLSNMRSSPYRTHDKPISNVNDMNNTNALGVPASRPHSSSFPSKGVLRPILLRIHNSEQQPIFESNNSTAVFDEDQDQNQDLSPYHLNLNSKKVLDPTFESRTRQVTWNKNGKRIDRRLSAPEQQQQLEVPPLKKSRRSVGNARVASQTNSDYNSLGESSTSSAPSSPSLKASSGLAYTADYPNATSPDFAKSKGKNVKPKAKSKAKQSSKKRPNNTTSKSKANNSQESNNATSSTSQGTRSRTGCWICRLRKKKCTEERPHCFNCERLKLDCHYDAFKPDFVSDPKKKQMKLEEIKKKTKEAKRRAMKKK

Variants of: B1
Conditions: with ume6_yeast UME6, P39001

| Variant | effect of a mutation on the interaction |
| --- | --- |
| S306A | with no effect |
| S302D | with no effect |
| S302A | with no effect |

Results, then the variant that gave them:

| effect of a mutation on the interaction | Variant |
| --- | --- |
| with no effect | S333A |
| with no effect | S337A |
| with no effect | S352A;S356A;S360A |
| decreasing interaction strength | Y359F |
